According to patent US20160208005A1 (Astellas, published 2016):

Tests used:
[1] = target: T1, human TSLP receptor (human, UniProt Q9HC73 23-371); assay: cell-based or functional assay
T1 sequence (looked up): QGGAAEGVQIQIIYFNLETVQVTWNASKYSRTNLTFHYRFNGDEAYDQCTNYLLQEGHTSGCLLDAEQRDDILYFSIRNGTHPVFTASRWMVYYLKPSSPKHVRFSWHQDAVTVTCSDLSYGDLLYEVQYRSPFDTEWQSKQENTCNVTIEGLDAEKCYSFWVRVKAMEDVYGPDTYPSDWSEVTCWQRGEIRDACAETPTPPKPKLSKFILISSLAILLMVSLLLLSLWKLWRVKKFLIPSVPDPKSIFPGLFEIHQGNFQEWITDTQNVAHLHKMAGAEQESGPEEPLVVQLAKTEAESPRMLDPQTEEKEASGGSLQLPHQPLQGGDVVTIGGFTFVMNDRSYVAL

[2] = target: T2, human TSLP receptor-mouse Fc fusion protein (human (receptor part), mouse (Fc part)); assay: SPR (Biacore 2000), antibody captured on CM5 chip by Human Antibody Capture Kit, human TSLP receptor-mouse Fc as analyte
T2 construct: Expressed in FreeStyle 293 cells and purified on Protein G; also called fusion protein of human TSLP receptor and mouse Fc
T2 chain: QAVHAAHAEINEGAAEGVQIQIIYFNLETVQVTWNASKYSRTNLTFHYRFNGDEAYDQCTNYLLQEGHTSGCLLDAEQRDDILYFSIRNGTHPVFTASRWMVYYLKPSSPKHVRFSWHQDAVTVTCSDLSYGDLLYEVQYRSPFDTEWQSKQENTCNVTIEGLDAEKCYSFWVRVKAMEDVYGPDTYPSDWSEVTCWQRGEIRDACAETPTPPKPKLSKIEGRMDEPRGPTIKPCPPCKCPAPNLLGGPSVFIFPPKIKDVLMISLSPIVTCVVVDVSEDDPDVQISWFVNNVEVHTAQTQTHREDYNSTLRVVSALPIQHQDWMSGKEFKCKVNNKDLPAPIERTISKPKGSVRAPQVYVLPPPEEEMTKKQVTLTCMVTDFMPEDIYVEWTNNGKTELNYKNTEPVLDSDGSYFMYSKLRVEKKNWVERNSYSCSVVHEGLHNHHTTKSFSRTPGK
Procedure: (§1) In the SPR analysis, the analysis was performed using Biacore (registered trademark) 2000 (GE Healthcare Japan Corporation). Respective anti-human TSLP receptor antibodies were immobilized on the surface of a sensor chip CM5 using a Human Antibody Capture Kit and an Amine Coupling Kit (GE Healthcare Japan Corporation). The human TSLP receptor-mouse Fc fusion protein obtained in Example 1 was serially diluted with an HBS-EP solution (GE Healthcare Japan Corporation), and 100 μL of the solution was added to the flow path at a flow rate of 50 μL/min. By this measurement system, binding rate constant (ka), dissociation rate constant (kd), and dissociation constant (KD) of the human TSLP receptor-mouse Fc fusion protein and the anti-human TSLP receptor antibody were calculated using data analysis software (BIA Evaluation) (Table 1).

[3] = target: T2, human TSLP receptor-mouse Fc fusion …; assay: SPR (Biacore 2000), antibody captured, human TSLP receptor-mouse Fc as analyte; reference TSLPR-012_141
Procedure: as §1

[4] = target: T1, human TSLP receptor; assay: cell-based or functional assay; remark: listed apart in the source

B1: fully human T7-27 (antibody, human IgG1, kappa, V domains shown)
VH: EVQLLESGGGLVQPGGSLRLSCAASGFTFRSSAMHWVRQAPGKGLKWVSSVSGSGAGTYYADSVKGRFTISRDNPKNTLYLQMNSLRAEDTAVYYCVKEGGSRGFDYWGQGTLVTVSS
VL: DIQMTQSPSSLSASVGDRVTITCRASQDISNYLAWFQQKPGKAPKSLIYTASSLQSGVPSKFSGSGSGTDFTLTISSLQPEDFATYYCQQYNLYPPTFGQGTKVEIKR
modifications: deletion of lysine of the heavy chain C terminal occurred in a large part of the purified antibody
notes: Human IgG1/kappa; Expressed in FreeStyle 293 or CHO-K1SV cells; also called fully human antibody of T7-27
IC50 (ng/mL); TSLP-induced MDC proteins production inhibition using human PBMC (5 ng/mL human TSLP mutant-Flag protein) [1]: 0.12 ng/mL | Kd [2]: 4.1 nM | koff [2]: 0.000125 s⁻¹ | fold binding activity compared to TSLPR-012_141 [3]: ~3 fold | fold inhibition activity against TSLP-induced MDC proteins production compared to TSLPR-012_141 [4]: ~9 fold | fold inhibition activity against human TSLP-induced TARC mRNA expression compared to TSLPR-012_141 [4]: ~12 fold
